Measured values as given in patent publication US20170052184A1 (published 2017).
Residue numbers refer to the chain shown, from its start.

T1: HCV Core1-169 (HCV-1, UniProt P26664 1-169)
T1 construct: also called recombinant HCV core antigen
T1 sequence: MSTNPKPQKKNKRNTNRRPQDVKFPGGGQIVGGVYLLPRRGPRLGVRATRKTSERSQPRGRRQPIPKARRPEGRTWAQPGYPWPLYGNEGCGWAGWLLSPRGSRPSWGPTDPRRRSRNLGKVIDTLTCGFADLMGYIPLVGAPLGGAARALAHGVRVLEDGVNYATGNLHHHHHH

B1: HCV 208A-877 (antibody, V domains shown)
VH: QLQQSGPELVKPGASVKISCKTSGYTFTENAMHWVKQSRGKSLEWIGGVNPNNGDTVYTQKFKGKATLTVAKSSSTAYMELRTMTCEESTVYYCASREPDFFDYWGQGSSVTVSS
VL: QIVLTQSPAIMSVSPGEKVSMTCSASSSVTYMHWYQQKSGTSPKRWIYDTSELASGVPARFSGSGSGTTYSLTISSMEAEDAATYYCQQWSNKPLTFGAGTKLELKR
B2: HCV 208B-517 (antibody, V domains shown)
VH: QVQLKQSGPGLVQPSQSLSITCTVSGFSLITHGVHWVRQSPGKGLEWLGVIWSGGSTDYNAAFISRLSISKDTSKSQVFLKMSSLQADDTAIYYCARNGGATAFDYWGQGTTLTVSS
VL: DIVMTQSPATLSVTPGDRVSLSCRASQSISDYLHWYQQKSHESPRLLIKYASQSISGIPSRFRGSGSGSHFTLSINSVEPEDVGVYYCQNGHSFPWTFGGGTKLEIKR
B3: HCV 208B-189 (antibody, V domains shown)
VH: QVHLQQSGAELAKPGASVQMSCKASGYTFTANKMHWARQRPRQGLEWIGYIDPASGYTEYNQKIKDRATLTADKSSSTAYMQLSSLTSEDSAVYYCTNFAYWGQGTLVTVST
VL: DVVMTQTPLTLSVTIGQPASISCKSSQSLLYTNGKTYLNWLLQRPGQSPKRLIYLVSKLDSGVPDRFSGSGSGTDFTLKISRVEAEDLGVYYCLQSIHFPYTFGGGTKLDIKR
B4: HCV 208B-1096 (antibody, V domains shown)
VH: QVQLQQSGAGLAKPGASVKMSCKASGYTFTANKMHWAKQRPGQGLEWIGYIDPSSGYTEYNHKIQYKATLTADTSSSTAYMQLSTLTFEDSAVYYCTNFAYWGQGTLVTVSA
VL: DIVMTQTPLTLSVTIGQPASISCKSSQSLLFTNGKTYLNWFLQRPGQSPKRLIYLLSKLDSGVPDRFSGSGSGTDFTLKISRVEAEDLGVYYCLQSTYFPLTFGAGTKLELKR
B5: HCV 208B-395 (antibody, V domains shown)
VH: B4 VH with A37T, E59Q, Y66D, T85S
VL: DIVLTQSPATLSVTPGDRVSLSCRASQRIYNYLHWYQQKSHESPRLLIKYASQSISGIPSRFSGSGSGTDFILTINSVETEDFGMYFCQQSNSWPLTFGAGTKLELRR
B6: HCV 208B-547 (antibody, V domains shown)
VH: B3 VH with H3Q, Q19K, A31S, R38K, R42G, A54S, R67K, T112A
VL: EVVLTQSPAITAASLGQKVTITCRASSSVSYMHWYRQKSGTSPQPWIYEISTLASGVPTRFRASGSGTSYSLTISSMEAEDAAIYYCQQWNYPLTFGAGTKLELKR
B7: HCV 208B-589 (antibody, V domains shown)
VH: B4 VH with Y66D, T85S
VL: B4 VL
B8: HCV 208B-178 (antibody, V domains shown)
VH: DVKLVESGGGLVKLGGSLKLSCAASGFTFSSYYMSWVRQTPEKRLELVAAINSNGGSTYYPDTVKGRFTISRDNAKNTLYLQMSSLKSEDTALYYCARHGGLGRRDWYFDVWGAGTTVTVSS
VL: DIVLTQSPASLAVSLGQRATISCRASESVDNYGISFMHWYQQKPGQPPKLLIYRASNLESGIPARFSGSGSRTDFTLTINPVETDDVATYYCQQSNKDPFTFGSGAKLEIKR
B9: HCV 208B-515 (antibody, V domains shown)
VH: QVQLQQPGAELVKPGASLKLSCRASGYTFTSYWIHWVKQRPGQGLEWIGEIDPSDSYTNYNQKFKGKATLTVDKSSRAAYMQLSSLTSEDSAVYYCARHYYGVFDSWGQGTKLTVSS
VL: QIVFTQYPAIMSASLGERVTMTCTASSSVTSSYLHWFQQKPGSSPKLWIYSTSNPGSGVPARFSGRGSGTSYSLSISSMEAEDAATYYCLQFHRSPWTFGGGTKLEIRR
B10: HCV 208B-327 (antibody, V domains shown)
VH: EVQLVESGGGLVKPGGSLKLSCAASGFTFSDSYMYWVRQTPDQRLEWVATISDGGSYTFYPDSVKGRFTISRDNAQNNLYLQMSSLKSEDTAMYYCASPHAGYFGWFAYWGRGTLVTVSA
VL: DIVMTQAAFSNPVTPGTSVSISCRSSKSLLHSNGITYLYWYLQKPGQSPQLLIYQMSKIASGVPDRFRSSGSGTDFTLRISRVEAADVGVYYCAQNLELPWTFGGGTKLEIKR
B11: HCV 208B-1024 (antibody, V domains shown)
VH: EVQLVESGGDLVKPGGSLKLSCAASGFTFSNYGMSWVRQTPDKRLEWVATISSGGSYSYYPDSVKGRFTISRDNAKNILYLQMSSLKSEDTAMYYCASLYYGYGDYWGQGTAFTVSS
VL: DVLMTQTPLSLPVSLGDQASISCRSSQSIVHSNGNTYLEWYLQKLGQSPKLLIYRVSNRFSGVPDRFSGSGSGTDFTLKISRVEAEDLGVYYCFQGSHVPWTFGGGTKLEIKR
B12: HCV 208A-352 (antibody, V domains shown)
VH: QGQMQQSGAELVKPGASVKLSCKTSGFTFSSSFISWLKQKPGQSLEWIAWIYAGTGNTNYNQKFTDKAQLTVDTSSSTAYMQFSSLTTEDSAIYYCAISGTGFTYWGQGTLVTVSA
VL: B11 VL with T5A, S14T, I29L, Y41F, L45P, R55N, W101L, G105S
B13: HCV 208B-281 (antibody, V domains shown)
VH: B12 VH with M4L, F33Y, K40R, N57G, T104I
VL: B11 VL with I29L, S32N, Y41F, L45P, R55K, W101F, G105S
B14: HCV 208A-920 (antibody, V domains shown)
VH: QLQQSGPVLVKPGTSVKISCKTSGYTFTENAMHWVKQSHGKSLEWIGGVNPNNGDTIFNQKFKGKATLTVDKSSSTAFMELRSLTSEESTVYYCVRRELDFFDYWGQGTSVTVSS
VL: DIVLTQSPASLAVSLGQRATISCRASQSVSTSRYSYMHWYQQKPGQPPKLLIKYASNLESGVPARFSGSGSGTDFTLNIHPVAEEDTAAYYCQHSWEFPFTFGSGTKLEIKR
B15: HCV 208A-1064 (antibody, V domains shown)
VH: EVQLQQSGPELVKPGASVKISCKTSGYTFTEYAMHWMKQSHGKSLEWIGGINPTNGDTIYNQKFKDKAKLTVDRSSSTAYMELRSLTSDDSALFYCARRELDYFASWGQGTTLTVSS
VL: B14 VL with A12I, R18T, Y34F, M37L, Y40I, A64V, A83E, A89T, Y91F, E109K
B16: HCV 208A-830 (antibody, V domains shown)
VH: EVRLQQPGPEVEKPGASVKISCKTSGYTFTEYAIHWVKQSHGESLEWIGGINPSNGDPIYNQIFKDKATLTVDRSSNTAYMGLRSLTVGDSGVYFCVRRQLDYFDFWGQGASLTVSS
VL: B14 VL with A25S, M37L, A83G, T87P, A89T
B17: HCV 208A-126 (antibody, V domains shown)
VH: QLQQSGPVLVKPGASVMISCKTSGYTFTENAMHWVKQSHGKSLEWIGGVNPNNGDTIFNQKFKGKATLTVDKSSNTAFTELRSLPSEESTVYYCVRRGLDFFDYWGQGTSVTVSS
VL: B14 VL
B18: HCV 208B-1094 (antibody, V domains shown)
VH: B15 VH with K63R
VL: DIVLTQSPASLIVSLGQTATISCRASQSLSTSRFSYVHWIQQKPGQPPKLLIKYASNLESGVPVRFSGSGSGTDFTLNIHPVEEEDTATYFCQHSWEFPFTFGSGTKLKIKR
B19: HCV 208A-110 (antibody, V domains shown)
VH: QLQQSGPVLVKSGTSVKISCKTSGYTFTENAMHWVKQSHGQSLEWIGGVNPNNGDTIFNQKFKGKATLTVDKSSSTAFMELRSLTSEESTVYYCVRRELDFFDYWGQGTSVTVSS
VL: B14 VL
B20: HCV 208B-251 (antibody, V domains shown)
VH: B17 VH with M17K, F58Y, N75S, T79M, P85T, T90P, Y93F, G98E
VL: B14 VL with Q17K, R18K, Q46H
B21: HCV 208A-159 (antibody, V domains shown)
VH: B17 VH with V8A, L9Q, G64D, T67A, N75S, T79M, P85T, G98E
VL: B14 VL with M37V, S56A, T87A
B22: HCV 208A-741 (antibody, V domains shown)
VH: B17 VH with N75S, T79M, P85T, G98E
VL: B14 VL with A19T, R24G, Y34F
B23: HCV 208A-133 (antibody, V domains shown)
VH: B17 VH with K11G, K36E, N75S, T79M, L81F, P85T, G98E
VL: B14 VL with A89T
B24: HCV 208A-293 (antibody, V domains shown)
VH: B15 VH with T24A, Y27F, T58A, A105P
VL: B18 VL with T18R, L29V, T76I, K109E
B25: HCV 208B-556 (antibody, V domains shown)
VH: B17 VH with N75S, T79M, L81F, P85T, G98E
VL: B14 VL with A89T
B26: HCV 208A-334 (antibody, V domains shown)
VH: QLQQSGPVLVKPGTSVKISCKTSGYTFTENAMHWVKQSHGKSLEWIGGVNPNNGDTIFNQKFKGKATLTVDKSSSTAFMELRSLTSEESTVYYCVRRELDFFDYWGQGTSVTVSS
VL: B14 VL with E97G
B27: HCV 208B-408 (antibody, V domains shown)
VH: EVKLVESGGGLVQPGGSLRLSCASSGFTFTDYYMSWVRQPPGKALEWLGFIRNKAYGYTTEFSASVNGRFTISRDDSQSVPYLQMNTLRAEDSATYYCARVLYYDYGGFAYWGQGTLVTVST
VL: DIQMTQSPASLSASVGETVTITCRASGNIHTYLAWYQQKQGKSPQLLVYNANTLADGVPSRFSGSGSGTQFSLKINSLQPDDFGSYYCQHFWSAPWTFGGGTQLEIKR

Tests used:
HCV Core1-169 [1] = biological target: T1, HCV Core1-169; assay: EIA, core1-169 coated on plate
HCV Core1-169 [2] = biological target: T1, HCV Core1-169; assay: EIA, core1-169 captured by mAb 14-153-229
Also: test concentration or dose not given here.

Row | Binder | OD (A492) (HCV Core1-169 [1]) | OD (A492) (HCV Core1-169 [2])
1 | B1 | 0.9 OD | 1.25 OD
2 | B2 | 0.79 OD | 0.97 OD
3 | B3 | 0.49 OD | 1.81 OD
4 | B4 | 0.49 OD | 1.75 OD
5 | B5 | 0.5 OD | 1.95 OD
6 | B6 | 0.46 OD | 1.62 OD
7 | B7 | 0.68 OD | 1.29 OD
8 | B8 | 0.89 OD | 1.09 OD
9 | B9 | 0.06 OD | 0.08 OD
10 | B10 | 0.14 OD | 0.11 OD
11 | B11 | 0.6 OD | 0.31 OD
12 | B12 | 0.1 OD | 0.53 OD
13 | B13 | 0.09 OD | 0.11 OD
14 | B14 | 1.14 OD | 1.82 OD
15 | B15 | 0.94 OD | 1.57 OD
16 | B16 | 1.16 OD | 2.09 OD
17 | B17 | 0.69 OD | 1.2 OD
18 | B18 | 0.9 OD | 1.51 OD
19 | B19 | 1.6 OD | 1.87 OD
20 | B20 | 0.79 OD | 1.39 OD
21 | B21 | 0.57 OD | 1.29 OD
22 | B22 | 1.2 OD | 1.9 OD
23 | B23 | 1.73 OD | 1.46 OD
24 | B24 | 1.41 OD | 2.31 OD
25 | B25 | 0.74 OD | 1.35 OD
26 | B26 | 1.28 OD | 1.9 OD
27 | B27 | 0.09 OD | 0.09 OD
